# Assay results: US20220332804A1 (CSL INNOVATION, published 2022)
# Changes are numbered by the printed parent chain.
# T1: human C2 D404A (human, UniProt P06681 21-752)
# T1 sequence: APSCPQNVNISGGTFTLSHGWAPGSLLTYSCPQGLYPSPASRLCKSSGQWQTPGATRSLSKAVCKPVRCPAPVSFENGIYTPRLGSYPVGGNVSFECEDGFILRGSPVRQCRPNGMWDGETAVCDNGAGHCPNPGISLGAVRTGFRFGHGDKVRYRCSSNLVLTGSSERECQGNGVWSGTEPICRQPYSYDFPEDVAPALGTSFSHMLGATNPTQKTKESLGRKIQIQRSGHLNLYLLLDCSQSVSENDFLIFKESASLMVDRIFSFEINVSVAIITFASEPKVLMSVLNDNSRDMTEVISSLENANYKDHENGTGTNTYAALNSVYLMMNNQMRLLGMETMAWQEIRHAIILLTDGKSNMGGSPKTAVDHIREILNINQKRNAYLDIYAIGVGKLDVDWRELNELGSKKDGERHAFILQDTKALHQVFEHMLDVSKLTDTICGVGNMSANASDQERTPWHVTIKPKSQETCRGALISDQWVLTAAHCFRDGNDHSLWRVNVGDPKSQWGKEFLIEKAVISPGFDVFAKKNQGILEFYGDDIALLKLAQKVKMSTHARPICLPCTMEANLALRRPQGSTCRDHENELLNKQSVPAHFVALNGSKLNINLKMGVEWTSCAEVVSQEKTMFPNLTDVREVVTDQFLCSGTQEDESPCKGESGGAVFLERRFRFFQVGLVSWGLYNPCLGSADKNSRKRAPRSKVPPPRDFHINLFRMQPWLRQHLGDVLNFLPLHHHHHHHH
# T2: human C2 K329A (human, UniProt P06681 21-752)
# T2 sequence: T1 sequence with K309A, A384D
# T3: human C2 R519A (human, UniProt P06681 21-752)
# T3 sequence: T1 sequence with A384D, R499A
# T4: human C2 F689A (human, UniProt P06681 21-752)
# T4 sequence: T1 sequence with A384D, F669A
# B1: RF16-214 (antibody, V domains shown)
# VH: EVQLLESGGGLVQPGGSLRLSCAASGFTFSWYQMMWVRQAPGKGLEWVSRIYPSGGGTAYADSVKGRFTISRDNSKNTLYLQMNSLRAEDTAVYYCARDAGYGDNWGQGTLVTVSS
# VL: QSALTQPPSVSVSPGQTASITCSGDKLGEKYASWYQQKAGQSPVMVIYQDRKRPSGIPERFSGSNSGNTATLTISGTQAMDEADYYCQAWDTRAVVFGGGTKLTVLG
# Key:
# Assay in all cases: SPR, mAb captured, C2 mutant analyte;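 also: Anti-C2 mAbs captured on goat anti-human IgG Biacore CM5 chips, alanine or serine C2 surface mutants flowed over at 37 °C, double-referenced sensorgrams fitted to a 1:1 binding model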
# [1] = target: T1, human C2 D404A
# [2] = target: T2, human C2 K329A
# [3] = target: T3, human C2 R519A
# [4] = target: T4, human C2 F689A
binder,measurement,setting,value
B1,Kd,[1],77.6 nM
same,Kd,[2],62.6 nM
same,Kd,[3],40 nM
same,Kd,[4],36.5 nM
